Measured values from patent US9944717 (BROTEIO PHARMA B V, dated 2018).
Substitutions are numbered along the chain they refer to. Values belong to the binder of their own block, whether it stands above or below them.

How the values were obtained:
[1] = target: T1, C1s-cleaved glycosylated recombinant human C2 (human, UniProt P06681 21-243; P06681 244-752, N-linked glycans); experiment: ELISA, C1s-cleaved C2 coated at 200 ng per well
T1 construct: Cleavage at the Arg243-|-Lys244 bond as printed; also called C1s-cleaved recombinant human C2; C1s-cleaved C2; not shown: N-terminal his-tag
T1 sequence 1: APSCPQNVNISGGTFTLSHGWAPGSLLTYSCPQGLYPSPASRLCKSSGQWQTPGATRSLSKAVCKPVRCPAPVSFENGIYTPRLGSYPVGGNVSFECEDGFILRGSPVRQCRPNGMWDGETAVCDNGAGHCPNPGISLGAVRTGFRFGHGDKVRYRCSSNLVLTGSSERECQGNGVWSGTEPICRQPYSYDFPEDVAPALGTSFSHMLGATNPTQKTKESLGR
T1 sequence 2: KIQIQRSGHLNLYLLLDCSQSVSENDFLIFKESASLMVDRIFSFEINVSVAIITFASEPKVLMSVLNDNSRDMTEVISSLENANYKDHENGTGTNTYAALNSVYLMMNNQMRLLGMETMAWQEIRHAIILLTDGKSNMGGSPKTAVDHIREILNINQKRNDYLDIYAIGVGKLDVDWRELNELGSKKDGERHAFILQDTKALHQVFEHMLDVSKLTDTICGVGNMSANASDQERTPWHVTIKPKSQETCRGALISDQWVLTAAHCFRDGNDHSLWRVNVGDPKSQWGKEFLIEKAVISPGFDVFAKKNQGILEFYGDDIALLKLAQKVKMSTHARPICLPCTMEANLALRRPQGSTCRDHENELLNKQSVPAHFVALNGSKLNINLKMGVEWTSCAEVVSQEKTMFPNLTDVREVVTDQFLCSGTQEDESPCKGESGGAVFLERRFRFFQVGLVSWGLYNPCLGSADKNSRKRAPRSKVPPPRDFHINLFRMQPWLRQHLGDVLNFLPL

[2] = target: T2, glycosylated recombinant human complement C2 with a N-terminal his-tag (human, UniProt P06681 21-752, N-linked glycans); experiment: ELISA, C2 coated at 25 or 200 ng per well
T2 construct: also called recombinant human C2; wild-type recombinant C2; not shown: N-terminal his-tag
T2 sequence: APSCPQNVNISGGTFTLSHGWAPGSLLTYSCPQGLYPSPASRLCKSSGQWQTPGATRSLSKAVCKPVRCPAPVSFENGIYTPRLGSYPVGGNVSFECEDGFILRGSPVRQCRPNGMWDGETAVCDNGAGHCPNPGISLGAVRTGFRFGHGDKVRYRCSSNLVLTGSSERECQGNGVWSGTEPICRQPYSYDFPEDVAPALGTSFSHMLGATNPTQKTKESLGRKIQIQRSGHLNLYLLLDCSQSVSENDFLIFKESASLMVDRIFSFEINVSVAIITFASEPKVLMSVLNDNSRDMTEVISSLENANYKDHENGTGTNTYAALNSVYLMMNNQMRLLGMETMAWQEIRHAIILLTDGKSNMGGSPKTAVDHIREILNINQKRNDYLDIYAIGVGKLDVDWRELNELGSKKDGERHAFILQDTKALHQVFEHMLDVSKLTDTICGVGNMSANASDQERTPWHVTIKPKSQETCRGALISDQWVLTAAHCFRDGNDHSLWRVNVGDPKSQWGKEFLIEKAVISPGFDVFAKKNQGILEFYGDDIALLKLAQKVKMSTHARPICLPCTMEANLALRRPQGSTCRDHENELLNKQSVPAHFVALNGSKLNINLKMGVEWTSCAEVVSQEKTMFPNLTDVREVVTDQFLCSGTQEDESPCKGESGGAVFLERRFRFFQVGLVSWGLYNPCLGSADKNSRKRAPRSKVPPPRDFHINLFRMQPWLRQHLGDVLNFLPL
Protocol: Chimeric mouse-human antibodies (human IgG1κ version for anti-C2-32, and human IgG4κ version for anti-C2-5F2.4, -13, -32, -35 and -60) were expressed using FreeStyle™ MAX CHO (CHO-S cells) Expression System (Invitrogen). Expressed chimeric mouse-human anti-human complement C2 antibodies were purified using affinity chromatography protein A columns (GE Healthcare). Using the same ELISA procedure as described in Example 3, all anti-C2 chimeric mAbs were tested for binding to high (200 ng per well) and low (25 ng per well) recombinant C2. Briefly, ELISA plates (Corning) were coated with the indicated amount of C2 in PBS overnight at 4° C. After extensive washing in PBS/0.05% Tween 20, plates were blocked with PBS/0.05% Tween 20/1% BSA fraction V (Roche) for 1 hour at RT. […] After extensive washing in PBS/0.05% Tween 20, binding of antibodies was determined with 1:5000 diluted horseradish peroxidase-conjugated goat anti-human IgG-specific (heavy and light chains) antibodies (Jackson ImmunoResearch) for 1 hour at RT, followed by a ready-to-use solution of TMB substrate (Invitrogen) for colorimetric detection. After adding 1 M H_2SO_4, optical densities were measured at a wavelength of 450 nm (reference wavelength of 655 nm) using a microplate reader (BioRad).

[3] = target: T2, glycosylated recombinant human …; experiment: ELISA, recombinant human C2 immobilized at 2 µg/ml
Protocol: Chimeric mouse-human antibodies (human IgG1κ version for anti-C2-32, and human IgG4κ version for anti-C2-5F2.4, -13, -32, -35 and -60) were expressed using FreeStyle™ MAX CHO (CHO-S cells) Expression System (Invitrogen). Expressed chimeric mouse-human anti-human complement C2 antibodies were purified using affinity chromatography protein A columns (GE Healthcare). Using the same ELISA procedure as described in Example 3, all anti-C2 chimeric mAbs were tested for binding to high (200 ng per well) and low (25 ng per well) recombinant C2. Briefly, ELISA plates (Corning) were coated with the indicated amount of C2 in PBS overnight at 4° C. After extensive washing in PBS/0.05% Tween 20, plates were blocked with PBS/0.05% Tween 20/1% BSA fraction V (Roche) for 1 hour at RT. Subsequently, plates were incubated with 0, 0.00002-20.0 (10-fold dilution steps in block buffer) μg/mL protein A-purified chimeric mouse-human IgG1κ and/or IgG4κ anti-C2-5F2.4, -13, -32, -35 and -60 for 1 hour at RT. After extensive washing in PBS/0.05% Tween 20, binding of antibodies was determined with 1:5000 diluted horseradish peroxidase-conjugated goat anti-human IgG-specific (heavy and light chains) antibodies (Jackson ImmunoResearch) for 1 hour at RT, followed by a ready-to-use solution of TMB substrate (Invitrogen) for colorimetric detection. After adding 1 M H_2SO_4, optical densities were measured at a wavelength of 450 nm (reference wavelength of 655 nm) using a microplate reader (BioRad).
Binding of humanized anti-C2-5F2.4 mAbs versions VL3VH3, VL4VH3, VL3VH4, and VL4VH4 to C2 was assessed by ELISA like described above in Example 12 (recombinant human C2 was immobilized to plates at 2 µg/ml).

[4] = target: T2, glycosylated recombinant human …; experiment: ELISA, C2 coated at 200 ng per well
[5] = target: T3, glycosylated recombinant human subcomponent C2a (≈70 kDa) (human, UniProt P06681 244-752, N-linked glycans); experiment: Western blot of C1s-cleaved C2, non-reducing, mAb at 200 ng/mL
T3 construct: Larger fragment of C1s-cleaved recombinant C2; Start 244 follows from the printed cleavage site; also called purified C2a; recombinant human C2a
T3 sequence: T1 sequence 2
Protocol: (a). Mapping of Epitopes for mAbs Anti-C2-13, -32, -35, -60 and -5F2.4 on Glycosylated Recombinant Human Subcomponents C2a and C2b with Western Blotting Glycosylated recombinant human C2 (range 125-500 ng/lane, see FIG. 9; U-protein Express) or C1s-cleaved glycosylated recombinant human C2 (range 62.5-1000 ng/lane, see FIG. 9; for C2 cleavage procedure, see Example 1(b)) were electrophorized using 4-12% Tris-Bis gels and MOPS running buffer (Invitrogen) under non-reducing conditions in pre-cast SDS-PAGE (NuPage® Novex® system). Then, the C2 proteins were electro-blotted onto a polyvinylidene fluoride (PDVF) transfer membrane (Millipore). After blocking with PBS/0.05% Tween 20/1% BSA fraction V (Roche) for 20 min at RT, PDVF membranes were incubated with anti-C2 mAbs anti-C2-C2-5F2.4 (100 ng/mL), anti-C2-13 (200 ng/mL), anti-C2-32 (200 ng/mL), anti-C2-35 (100 ng/mL) and anti-C2-60 (200 ng/mL) for 1 hour at RT. After extensive washing in PBS/0.05% Tween 20, binding of anti-C2 mAbs was determined with 1:10,000 diluted horseradish peroxidase-conjugated goat anti-mouse Fcγ-specific antibodies (Jackson ImmunoResearch) for 1 hour at RT, followed by a ready-to-use solution of TMB substrate (Sigma) for colorimetric detection.

binding result [1]: binds
B1: mouse anti-human complement C2 antibody anti-C2-5F2.4 (mIgG2aκ) (antibody, V domains shown)
VH: EVQLQQSGAELVKPGASVKISCKASGYTFTDYNMDWVKQSHGKSLEWIGDINPNYESTGYNQKFKGKATLTVDKSSSTAYMELRSLTSEDTAVYYCAREDDHDAFAYWGQGTLVTVSA
VL: DNVLTQSPASVVVSLGQRATISCRASKSVRTSGYNYMHWYQQKPGQPPKLLIYLASNLKSGVPARFSGSGSGTDFTLNIHPVEEADAATYYCQHSRELPYTFGGGTKLEIKR
notes: also called mAb 5F2.4

binding result [2]: binds
B2: chimeric mouse-human IgG4κ anti-human complement C2-5F2.4 (antibody, V domains shown)
VH: B1 VH
VL: B1 VL with N2I
notes: Stabilized human IgG4 / human κ, expressed in CHO-S cells; also called chimeric anti-C2-5F2.4; chuIgG4κ anti-C2-5F2.4

binding result [3]: binds
B3: humanized IgG4/kappa anti-human complement C2-5F2.4 version VL3VH3 (antibody)
heavy: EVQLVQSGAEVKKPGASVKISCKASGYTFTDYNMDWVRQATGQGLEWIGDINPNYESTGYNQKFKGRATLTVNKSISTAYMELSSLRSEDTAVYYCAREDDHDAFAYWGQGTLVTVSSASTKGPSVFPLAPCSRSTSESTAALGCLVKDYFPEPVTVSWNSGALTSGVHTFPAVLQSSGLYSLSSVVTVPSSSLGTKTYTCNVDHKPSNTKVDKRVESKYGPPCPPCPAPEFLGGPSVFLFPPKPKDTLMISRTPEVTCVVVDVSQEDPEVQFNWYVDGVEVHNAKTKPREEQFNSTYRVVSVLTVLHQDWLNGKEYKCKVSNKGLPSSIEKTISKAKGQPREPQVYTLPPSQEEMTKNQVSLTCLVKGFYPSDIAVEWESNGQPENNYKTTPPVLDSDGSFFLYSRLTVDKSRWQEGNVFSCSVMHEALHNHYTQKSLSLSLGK
light: DNVLTQSPDSLAVSLGERATISCRASKSVRTSGYNYMHWYQQKPGQPPKLLIYLASNLKSGVPDRFSGSGSGTDFTLTISSLQAEDAATYYCQHSRELPYTFGQGTKLEIKRTVAAPSVFIFPPSDEQLKSGTASVVCLLNNFYPREAKVQWKVDNALQSGNSQESVTEQDSKDSTYSLSSTLTLSKADYEKHKVYACEVTHQGLSSPVTKSFNRGEC
notes: Stabilized human IgG4, κ; expressed with the FreeStyle 293 system

binding result [3]: binds
B4: humanized IgG4/kappa anti-human complement C2-5F2.4 version VL4VH4 (antibody)
heavy: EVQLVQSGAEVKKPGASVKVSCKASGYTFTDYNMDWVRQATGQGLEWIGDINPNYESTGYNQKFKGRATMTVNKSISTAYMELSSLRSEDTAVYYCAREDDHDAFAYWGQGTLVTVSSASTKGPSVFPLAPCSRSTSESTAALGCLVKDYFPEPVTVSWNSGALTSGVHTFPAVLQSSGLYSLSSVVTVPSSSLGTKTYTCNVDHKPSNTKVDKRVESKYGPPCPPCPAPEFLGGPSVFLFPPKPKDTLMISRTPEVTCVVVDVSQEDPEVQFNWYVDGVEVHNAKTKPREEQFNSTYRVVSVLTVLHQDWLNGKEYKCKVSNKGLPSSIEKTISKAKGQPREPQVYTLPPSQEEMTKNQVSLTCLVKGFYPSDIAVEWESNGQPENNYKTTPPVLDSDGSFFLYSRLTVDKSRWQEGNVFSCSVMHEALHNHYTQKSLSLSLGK
light: B3 light with S22N
notes: as for B3

binding result [3]: binds
B5: humanized IgG4/kappa anti-human complement C2-5F2.4 version VL4VH3 (antibody)
heavy: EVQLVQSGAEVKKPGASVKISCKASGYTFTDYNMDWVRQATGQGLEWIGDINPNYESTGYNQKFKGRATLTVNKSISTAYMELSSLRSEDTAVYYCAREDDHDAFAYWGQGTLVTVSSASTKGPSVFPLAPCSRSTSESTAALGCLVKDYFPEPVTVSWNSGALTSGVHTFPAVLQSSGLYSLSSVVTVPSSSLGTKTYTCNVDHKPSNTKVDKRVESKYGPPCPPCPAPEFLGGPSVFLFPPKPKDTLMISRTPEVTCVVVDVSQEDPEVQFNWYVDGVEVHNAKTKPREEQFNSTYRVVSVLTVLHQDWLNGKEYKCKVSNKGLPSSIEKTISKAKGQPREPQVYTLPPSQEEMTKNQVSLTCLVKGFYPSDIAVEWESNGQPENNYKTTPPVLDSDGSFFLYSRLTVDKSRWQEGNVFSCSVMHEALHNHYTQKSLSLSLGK
light: B3 light with S22N
notes: as for B3

binding result [3]: binds
B6: humanized IgG4/kappa anti-human complement C2-5F2.4 version VL3VH4 (antibody)
heavy: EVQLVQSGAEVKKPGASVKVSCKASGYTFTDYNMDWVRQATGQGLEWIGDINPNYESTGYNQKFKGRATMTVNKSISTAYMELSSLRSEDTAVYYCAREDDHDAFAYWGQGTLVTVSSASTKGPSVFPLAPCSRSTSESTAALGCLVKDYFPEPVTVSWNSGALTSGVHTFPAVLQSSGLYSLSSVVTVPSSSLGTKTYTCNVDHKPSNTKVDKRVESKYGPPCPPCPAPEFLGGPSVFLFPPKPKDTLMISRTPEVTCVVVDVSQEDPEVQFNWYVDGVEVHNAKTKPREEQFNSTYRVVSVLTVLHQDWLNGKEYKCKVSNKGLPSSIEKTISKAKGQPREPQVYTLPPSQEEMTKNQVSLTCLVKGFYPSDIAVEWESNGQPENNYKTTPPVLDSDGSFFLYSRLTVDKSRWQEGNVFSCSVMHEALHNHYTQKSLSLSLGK
light: B3 light
notes: as for B3

binding result [4]: binds
binding result [5]: binds
binding result [1]: binds
B7: mouse anti-human complement C2 antibody anti-C2-60 (mIgG1κ) (antibody, V domains shown)
VH: QVALKESGPGILQPSQTLSLTCSFSGFSLSTSNMGVGWIRQPSGKGLEWLAHIWWDDDKRYNPALKSRLTISKDTSSNQVFLKIASVDTADTATYFCARIGRPTMITTWYLDVWGAGTTVTVSS
VL: DIQMTQSPASLSVSVGETVTITCRASENIYSNLAWYQQKQGKSPQLLVYAATKLADGVPSRFSGSGSGTQYSLKINSLQSEDFGNYYCQHFWNTPYTFGGGTKLEIKR
notes: Hybridoma antibody, murine IgG1κ; also called antibody 60; hybridoma 60

binding result [2]: binds
B8: chimeric mouse-human IgG4κ anti-human complement C2-60 (antibody, V domains shown)
VH: B7 VH with A3Q, K5Q, E6Q
VL: B7 VL
notes: Stabilized human IgG4 / human κ, expressed in CHO-S cells; also called chimeric anti-C2-60; chuIgG4κ anti-C2-60
